Measurements reported in article PMC11432197 (International Journal of Molecular Sciences, 2024).

Target: T1, recombinant mTOR kinase domain (amino acid 1363-2549) (UniProt P42345 1363-2549)
T1 construct: also called mTOR kinase domain protein; mTOR (in vitro); source: bought: Sigma-Aldrich (Cat #14-770)
Assay: co-IP; in vitro: ETV7 and mTOR incubated overnight at 4 °C in the presence or absence of Ndel-FRB and/or 120 aa-LBE; ETV7 IPs immunoblotted for mTOR, ETV7 and Flag
Conditions: both partners purified

T1 sequence (P42345 1363-2549): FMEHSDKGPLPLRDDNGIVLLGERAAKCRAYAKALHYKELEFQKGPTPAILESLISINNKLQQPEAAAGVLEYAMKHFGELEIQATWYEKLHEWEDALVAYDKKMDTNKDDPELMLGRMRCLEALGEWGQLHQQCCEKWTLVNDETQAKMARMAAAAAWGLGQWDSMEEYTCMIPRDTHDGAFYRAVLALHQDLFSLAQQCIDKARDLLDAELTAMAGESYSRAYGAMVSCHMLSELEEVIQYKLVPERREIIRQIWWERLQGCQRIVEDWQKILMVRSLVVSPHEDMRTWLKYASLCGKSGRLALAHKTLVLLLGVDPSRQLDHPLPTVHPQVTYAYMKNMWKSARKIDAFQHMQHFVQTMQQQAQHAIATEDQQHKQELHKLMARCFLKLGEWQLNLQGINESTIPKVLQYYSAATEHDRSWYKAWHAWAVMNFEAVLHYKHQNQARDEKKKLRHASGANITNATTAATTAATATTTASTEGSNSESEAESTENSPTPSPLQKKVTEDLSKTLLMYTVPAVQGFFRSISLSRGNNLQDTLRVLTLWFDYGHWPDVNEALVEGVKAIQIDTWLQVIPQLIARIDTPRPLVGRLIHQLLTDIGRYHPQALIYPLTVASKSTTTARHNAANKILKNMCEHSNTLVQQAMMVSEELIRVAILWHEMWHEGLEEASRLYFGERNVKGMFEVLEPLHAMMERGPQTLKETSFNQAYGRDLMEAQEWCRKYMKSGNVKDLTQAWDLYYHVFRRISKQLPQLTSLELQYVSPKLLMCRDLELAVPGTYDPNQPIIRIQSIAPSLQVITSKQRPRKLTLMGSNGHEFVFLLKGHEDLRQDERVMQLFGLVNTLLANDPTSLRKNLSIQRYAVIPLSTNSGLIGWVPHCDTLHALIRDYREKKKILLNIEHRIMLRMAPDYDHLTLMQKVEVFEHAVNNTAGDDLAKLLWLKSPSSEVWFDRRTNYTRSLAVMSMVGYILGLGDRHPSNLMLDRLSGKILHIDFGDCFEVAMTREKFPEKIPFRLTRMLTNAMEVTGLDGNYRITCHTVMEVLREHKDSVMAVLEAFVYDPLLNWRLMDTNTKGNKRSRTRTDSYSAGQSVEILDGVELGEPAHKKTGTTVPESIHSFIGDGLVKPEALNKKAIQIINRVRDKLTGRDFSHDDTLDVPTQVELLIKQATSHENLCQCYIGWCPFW

binding result: binds
B1: ETV7 protein (recombinant) (natural protein)
chain: MQEGELAISPISPVAAMPPLGTHVQARCEAQINLLGEGGICKLPGRLRIQPALWSREDVLHWLRWAEQEYSLPCTAEHGFEMNGRALCILTKDDFRHRAPSSGDVLYELLQYIKTQRRALVCGPFFGGIFRLKTPTQHSPVPPEEVTGPSQMDTRRGHLLQPPDPGLTSNFGHLDDPGLARWTPGKEESLNLCHCAELGCRTQGVCSFPAMPQAPIDGRIADCRLLWDYVYQLLLDTRYEPYIKWEDKDAKIFRVVDPNGLARLWGNHKNRVNMTYEKMSRALRHYYKLNIIKKEPGQKLLFRFLKTPGKMVQDKHSHLEPLESQEQDRIEFKDKRPEISP
notes: ETV7, bought recombinant protein; also called ETV7 (in vitro); purified ETV7; source: bought: Origene (Cat #TP307742)
